From the supplement of paper PMC10567573

B1: WDFY2 (parent)
chain: FWNFKQMWDSKKIGLRQHHCRKCG

Variants of: B1
Experiment: protein stability index of a GFP-peptide fusion (GPS, HEK-293T) (PSI 1-6); higher = more stable
Conditions: c terminus: a fixed tail appended
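Note: lentivirally expressed fusions sorted by FACS into six bins by GFP to DsRed ratio, PSI derived from sequencing read proportions per bin multiplied by bin number.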

Protein stability index of substitutions, site by site:
N3: S 3.29; T 1.8; V 3.37; W 1.65; Y 1.91
F4: A 1.61; C 2.36; D 2.27; E 2.39; G 2.23; H 2.47; I 1.51; K 1.46; L 1.94; M 2.26; N 2.29; P 1.93; Q 2.41; R 2.33; S 2.12; T 2.3; V 2.33; W 2.26; Y 1.99
K5: A 1.81; C 2.66; D 1.96; E 2.22; F 1.38; G 1.5; H 1.66; I 1.7; L 1.83; M 2.6; N 1.76; P 1.98; Q 2.4; R 1.24; S 1.52; T 1.5; V 2.33; W 1.38; Y 1.24
Q6: A 1.56; C 2.34; D 1.91; E 1.89; F 1.53; G 2.79; H 2.27; I 1.68; K 2.44; L 2.03; M 1.93; N 2.27; P 2.04; R 1.79; S 1.85; T 1.82; V 1.51; W 1.28; Y 1.6
M7: A 2.19; C 2.09; D 2.41; E 2.82; F 2.09; G 1.68; H 2.48; I 1.92; K 1.69; L 2; N 1.62; P 2.06; Q 2.21; R 2.33; S 2.57; T 2.11; V 1.71; W 1.74; Y 2.34
W8: A 2.12; C 2.34; D 3; E 3.3; F 2.25; G 2.48; H 2.79; I 1.8; K 2.69; L 2.59; M 3.04; N 3.72; P 2.16; Q 2.39; R 2.58; S 2.14; T 2.07; V 2.22; Y 2.04
D9: C 1.2; E 2.3; F 1.54; G 1.77; H 2.63; I 2.56; K 2.05; N 1.81; P 2.43; Q 1.84; R 1.73; S 1.28; T 1; V 3.81; W 1.81; Y 2.95
S10: A 1.32; C 1.94; D 1.75; E 1.72; F 1.72; H 2.55; I 2.94; K 2.04; L 1.67; M 1.76; P 2.17; Q 2.65; R 1.53; T 1.73; V 1.78; Y 1.72
K11: A 2.93; C 2.65; D 2.1; E 2.61; F 2.48; G 2.44; H 2.12; I 2.5; L 1.73; M 1.83; N 2.7; P 2.19; Q 2.54; R 1.74; S 1.25; T 1.76; V 1.99; W 1.51; Y 2.71
K12: A 1.68; C 2.79; D 1.88; E 2.05; F 1.84; G 1.58; H 2.01; I 2.06; L 1.89; M 1.73; N 1.85; P 2.03; Q 2.1; R 1.71; S 2.62; T 2.08; V 2.42; W 2.3; Y 1.53
I13: A 2.52; C 2.72; D 2.55; E 2.28; F 2.15; G 1.99; H 1.81; K 1.99; M 2.29; N 2.42; P 1.86; Q 1.73; R 2.01; S 2.54; T 1.66; V 2.02; W 1.67; Y 2.25
G14: A 1.66; C 2.45; D 2.41; F 1.93; H 1.82; I 1.48; K 2.14; L 2; M 1.89; N 1.95; P 1.46; Q 1.32; R 1.9; S 3.27; T 2.4; V 2; W 1.91; Y 2.53
L15: A 2.01; D 2.17; E 2.48; F 1.81; G 2.14; H 1.71; I 1.92; K 2.32; M 1.97; N 2.11; P 2.68; Q 1.95; R 2.61; S 2.25; T 2.01; V 2.34; W 1.42; Y 1.93
R16: A 1.97; C 1.59; D 2.06; E 2.92; F 3.39; G 1.54; H 2.06; K 1.53; L 1.76; M 1.94; N 1.84; P 3.42; Q 2.66; S 2.15; T 1.67; V 2.1; Y 1.85
Q17: A 2.32; C 1.61; D 1.9; E 1.53; F 1.35; G 1.49; H 2.18; I 2.84; K 1.38; L 1.99; M 1.91; N 1.35; P 2.52; R 2; S 1.99; T 1.2; V 2.13; W 1.82; Y 2.12
H18: A 1.73; C 2.94; D 1.79; E 2.25; F 1.51; I 1.8; K 2.06; L 1.76; M 1.38; N 3.5; P 2.05; Q 1.44; R 2.5; S 1.84; T 1.56; V 1.83; W 2.18; Y 2.5
H19: A 1.86; C 1.73; D 2.11; E 1.62; F 1.79; G 2.38; I 2.22; K 2.39; L 2.02; N 2.68; P 2.17; Q 1.87; R 2.39; S 2.02; T 1.72; V 1.98; W 1.69; Y 1.76
C20: A 1.82; D 1.89; E 2.47; F 2.54; G 2.91; H 3.07; I 2.01; K 2.15; L 2.09; M 3.04; N 2.31; P 1.94; Q 2.15; R 2.37; S 2.49; T 2.28; V 1.73; W 3.08; Y 1.84
R21: A 2.34; D 2.04; E 2.02; F 1.76; G 1.85; H 2.66; I 1.29; K 2.01; L 1.1; M 2.21; N 2.46; P 1.53; Q 2.11; S 1.72; T 1.71; V 1.21; Y 1.58
K22: A 1.09; D 1.79
